Drawing on article PMC10609148, “Hexa-Histidine, a Peptide with Versatile Applications in the Study of Amyloid-β(1–42) Molecular Mechanisms of Action” (Molecules, 2023), this text covers EC50, half-saturation constant in the fitted one-site equation and Ki for 1 substance.

The target in experiment [1] is human recombinant cytochrome b5 reductase (Cb5R) with a His6-tag (human). Briefly: other fluorescence titration; FAD fluorescence (ex 460 nm, em 520 nm) of 32 nM Cb5R with a His6-tag titrated with Aβ peptides; 20 mM phosphate, 0.1 mM DTPA, pH 7, 25 °C; one-site fit; apparent constant, in peptide monomers.
The target is the same in experiment [2]. Briefly: inhibition of enzyme activity (NADH-dependent Cb5 reductase activity); 0.11 μg/mL Cb5R with a His6-tag, 5 μM Cb5, 0.25 mM NADH, rising Aβ peptide; absorbance at 550 nm; 20 mM phosphate, 0.1 mM DTPA, pH 7, 25 °C; fit to one inhibitor binding site; in Aβ monomers.

As to Aβ(25–35) (peptide), in experiment [1], the concentration giving a half-maximal response (EC50) (as a rule, the concentration giving half of the maximal effect) was found to be 75 nM and the half-saturation constant in the fitted one-site equation amounted to 99.3. Also, the inhibition constant Ki – broadly, a measure of affinity in units of concentration, obtained from inhibition or displacement – in experiment [2] lay within 50 to 60 nM.
